{
  "source": "paper PMC5020499",
  "about": "“Crystal structures of archaeal 2-oxoacid:ferredoxin oxidoreductases from Sulfolobus tokodaii” (Scientific Reports, 2016)",
  "binders": {"B1": {"name": "StOFOR2 b-subunit (STK_24330) (natural protein, Sulfolobus tokodaii, UniProt Q96XT4 1-304, looked up)", "chain": "MVERKPVFVDWCPGCGDFGILRAEEMAIRELGINPKSVVIVSGIGCSGKIPHFMNLPISGVHTLHGRSIAFATGIKLSNPSLEVIVNVGDGDGLGIGMGHFVHLGRRNIDIAVLVHNNGVYGLTKGQASPTLHRGEKTKSLPKPNIMDAVNPLAVALAAGYTFVARGYAYDVMHLKELIKKAILHKGSALVDILQPCPTYNDINTKEWYDKRVYKLDNVPGWDPVVRKEEEAQKKFEQAIMKSYEWGEKIPIGIFYQNELVPTFEDRLTSNIPNYREYYPAKQQIEINGISTTKIDELIKAKRI", "notes": "b-subunit of 2-oxoacid:ferredoxin oxidoreductase StOFOR2, STK_24330, Sulfolobus tokodaii; gene amplified from genomic DNA with primers from the start codon to the stop codon; domain VI (1b-305b); stk_22980 in pOFORAB was replaced with stk_24330; No tag is mentioned; Holds the [4Fe-4S] cluster; also called b-subunit of StOFOR2; source: E. coli C43 (DE3), expressed with the a-subunit, purified …"}, "B2": {"name": "StOFOR1 protomer (heterodimer of a-subunit STK_23000 and b-subunit STK_22980) (complex, Sulfolobus tokodaii strain 7)", "chain 1": "MRLSWVIGGAQGTGIDTAANIFGNAVASAGYYIYGNREYYSNIKGRHSYFSLTISDKRVRSNTQKIDILVSFDAETVFQHFYDVKDILIYNKAVETTKIDAVQSMEPELAERIKDFLTKQGYETTVKGALEYASKNNVTLIPVNYDEIAKKVADEMKVPLSVTERVKNIVGITISYKLLGLDVNYLIEAINSTFKQDLYRKMNELAVKDSYDIVESRYNLKPSSKERRRFWLDGNTAVAIGKIYGGVRFQSYYPITPASDESVYIEAHQDVLMEDPITGDKKKGTIVVVQAEDELAAINMAIGAALTGVRAATATSGPGFSLMVEGLGWAGMNEVPVVITYYIRGGPSTGLPTRTAQSDLIFPIFAGHGEFPKIVLASGDHAEAFKDAIWALNLAEKYQTPVIHLVEKTLANSYSTIPYEELELDKLKAERGKIVESGDISYKRFKFTEDGISPRAFLGKATMYYTGDEHNEEGHISEDVVNRTMMYEKRMKKLEVADKEIPEESRVKIYGDLNSRNLIITWGSPTGVLRDILEESNFDFTLLQIRMFSPFPKNLVSKLMEGRDKIITVEGNYLAQTSLLVKMYTGKDVTNSILKWNGRPFLRDELEEALIKVIKDGEKRVVLNGGI", "chain 2": "PQWNDWCPGCGNFGILNAEQQAIVELGVDTKNVVVVSGIGCSGKIPHFFRTPISGVHTLHGRAIAFATGIKLSNPDLVVIVNGGDGDLLGIGAGHFVAAGRRNVDMVVILHDNGVYGLTKGQASPTLKRGEKPKSLPRPNINDAVNPIALAISSGYTFVARGYAYDVKHLKELIKSAIKHKGLALIDVLQPCPTYNDINTKEWYDKRIYKLDTLPDWDPVVKKPEEVNEKIKRAIDKSLEWGDRIPIGIFYQNELVPSYEERIKANSPAYLDYTPAKQLIEKEGKLTTIIDPLLKEREVD", "notes": "a-subunit of StOFOR1, STK_23000, Sulfolobus tokodaii strain 7, 70 kDa; as the chain of m1; b-subunit of StOFOR1, STK_22980, Sulfolobus tokodaii strain 7, 34 kDa; as the chain of m2; One protomer is the pair of a- and b-subunits that holds one TPP; Two protomers form the (ab)2 enzyme; Cofactors: TPP, Mg2+, [4Fe-4S]; also called STK_23000/STK_22980; source: E. coli C43 (DE3), both subunits …"}, "B3": {"name": "StOFOR2 protomer (heterodimer of a-subunit STK_24350 and b-subunit STK_24330) (complex, Sulfolobus tokodaii)", "chain 1": "MTRIVWMIGGAQGLGVDTSANIFGNAVAKAGYYLFGNREYYSNIKGRHSYFEVVISEKPIRSLSSYVNILASFDAETVFQHFTETKEYLIYNVEYENTTVDLVKSMEPEMAEQVKEALSKERLGFTIKDVLEYLKRRGVKVIGFNYTELIKKIADTFKVPMSVVERAKNMIAVGASYGLLGLKFDYLKDAISSTFKNELFIKFNTMAAELGYNSVPNVYKLQEYKIEKQRIQVDGNTISAMGKLAGGLRFQSYYPITPASDESVYIEANQNLDMIVEGNELRKGGVVVVQAEDELAAINMAVGAALTGVRSATATSGPGFSLMSEGISWAGMNEVPVVITYYMRGAPATGLPTRSGQADLKFALNVGHGEFPRIVIASGDHVEIFWDAIWALNLAEKYQTPVIHIIEKTLANAYSVFEEELITNRPYVIERGKIVKPTSDYFNRFEVTEDGISPRVFLGQASIFYTGDEHNEEGHITENSINRMKMYEKRNKKLETADKEIPEEQRVNIVGDADIVLLTWGSPKGAILDAMEELSKDGIKTMMVQVKMFNPYPKNLMKKILSGKSKIIAVENNYNAQGAEVLAEKTGIFATNYILKWTGRPITREEVIEGIKKILERDEKRVVLYGGA", "chain 2": "MVERKPVFVDWCPGCGDFGILRAEEMAIRELGINPKSVVIVSGIGCSGKIPHFMNLPISGVHTLHGRSIAFATGIKLSNPSLEVIVNVGDGDGLGIGMGHFVHLGRRNIDIAVLVHNNGVYGLTKGQASPTLHRGEKTKSLPKPNIMDAVNPLAVALAAGYTFVARGYAYDVMHLKELIKKAILHKGSALVDILQPCPTYNDINTKEWYDKRVYKLDNVPGWDPVVRKEEEAQKKFEQAIMKSYEWGEKIPIGIFYQNELVPTFEDRLTSNIPNYREYYPAKQQIEINGISTTKIDELIKAKRI", "notes": "a-subunit of StOFOR2, STK_24350, Sulfolobus tokodaii; primers from the start codon to the stop codon; as the chain of m3; b-subunit of StOFOR2, STK_24330, Sulfolobus tokodaii; as the chain of m4; One protomer is the pair of a- and b-subunits that holds one TPP; Two crystallographically identical protomers form the (ab)2 enzyme; Cofactors: TPP, Mg2+, [4Fe-4S]; also called STK_24350/STK_24330; …"}},
  "key": {"[1]": {"target": "T1, StOFOR2 a-subunit (STK_24350) (Sulfolobus tokodaii, UniProt Q96XT2 1-628)", "T1 construct": "a-subunit of 2-oxoacid:ferredoxin oxidoreductase StOFOR2, STK_24350, Sulfolobus tokodaii; gene amplified from genomic DNA with primers from the start codon to the stop codon; domains III (1a-228a), I (228a-500a), II (500a-627/628a); stk_23000 in pOFORAB was replaced with stk_24350; No tag is mentioned; A selenomethionine-labelled form (E. coli B834 (DE3)) was used for phasing only; also called …", "T1 sequence (looked up)": "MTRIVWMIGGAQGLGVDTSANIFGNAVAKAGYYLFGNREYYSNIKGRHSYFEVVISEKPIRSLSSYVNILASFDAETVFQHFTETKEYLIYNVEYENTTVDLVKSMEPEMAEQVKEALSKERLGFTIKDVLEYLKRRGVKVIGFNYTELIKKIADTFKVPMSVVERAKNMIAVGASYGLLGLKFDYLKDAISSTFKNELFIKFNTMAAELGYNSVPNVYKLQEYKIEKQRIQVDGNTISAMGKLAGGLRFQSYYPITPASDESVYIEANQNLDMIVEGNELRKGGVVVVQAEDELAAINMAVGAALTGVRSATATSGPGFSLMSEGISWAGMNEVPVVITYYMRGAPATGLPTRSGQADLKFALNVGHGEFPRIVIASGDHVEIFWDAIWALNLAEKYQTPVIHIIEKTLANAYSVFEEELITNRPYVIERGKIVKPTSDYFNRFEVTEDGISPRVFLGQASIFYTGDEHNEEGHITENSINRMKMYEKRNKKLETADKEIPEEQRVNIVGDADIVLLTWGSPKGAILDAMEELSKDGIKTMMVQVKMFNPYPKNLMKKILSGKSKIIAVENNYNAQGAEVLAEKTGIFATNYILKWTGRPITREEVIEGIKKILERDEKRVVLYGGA", "test": "crystal structure; StOFOR2 ligand-free (2.1 Å) and soaked with 50 mM pyruvate (2.2 Å); sitting drop, 20 °C, 0.7 M ammonium tartrate dibasic, 0.1 M Tris-HCl pH 8.5; one protomer in the asymmetric unit", "details": "both partners purified"}, "[2]": {"target": "the molecule itself", "test": "crystal structure; StOFOR1 co-crystallised with 50 mM 2-oxobutyrate and 1 mM CoA; sitting drop, 25 °C, 15% PEG3350, 0.1 M Tris-HCl pH 8.5, 0.1 M NaBr; 2.5 Å; two protomers in the asymmetric unit"}, "[3]": {"target": "the molecule itself", "test": "crystal structure; StOFOR2 ligand-free (2.1 Å) and soaked with 50 mM pyruvate (2.2 Å); sitting drop, 20 °C, 0.7 M ammonium tartrate dibasic, 0.1 M Tris-HCl pH 8.5; one protomer in the asymmetric unit"}},
  "data": [
    {"binder": "B1", "values": [
      {"measurement": "binding result", "setting": "[1]", "result": "binds"}
    ]},
    {"binder": "B2", "values": [
      {"measurement": "stoichiometry N", "setting": "[2]", "result": 2}
    ]},
    {"binder": "B3", "values": [
      {"measurement": "stoichiometry N", "setting": "[3]", "result": 2}
    ]}
  ]
}
